Measurements as given in publication PMC4783044, “Stoichiometry and Change of the mRNA Closed-Loop Factors as Translating Ribosomes Transit from Initiation to Elongation” (PLoS ONE, 2016).
Each block holds one molecule with its values, some of them ahead of it.

Columns and labels:
Flag-PAB1 [1] = target: T1, Flag-PAB1 (yeast, UniProt P04147 1-577); assay: co-IP + AUC; one-step anti-Flag bead purification from yeast crude extract (Tris pH 7.5, 0.15 M KCl, 2 mM MgCl2, 10% glycerol, 4°C), Flag peptide elution, then AU-FDS of the GFP fusion with AU-A230 or AU-A260 (20°C, 15,000 rpm); material migrating at 77S (monosomal translating complex); cycloheximide added to cells; cells on glucose (elongation), or glucose depleted 10 min and glucose added back for 1 min or 0 min (initiation)
T1 sequence (looked up): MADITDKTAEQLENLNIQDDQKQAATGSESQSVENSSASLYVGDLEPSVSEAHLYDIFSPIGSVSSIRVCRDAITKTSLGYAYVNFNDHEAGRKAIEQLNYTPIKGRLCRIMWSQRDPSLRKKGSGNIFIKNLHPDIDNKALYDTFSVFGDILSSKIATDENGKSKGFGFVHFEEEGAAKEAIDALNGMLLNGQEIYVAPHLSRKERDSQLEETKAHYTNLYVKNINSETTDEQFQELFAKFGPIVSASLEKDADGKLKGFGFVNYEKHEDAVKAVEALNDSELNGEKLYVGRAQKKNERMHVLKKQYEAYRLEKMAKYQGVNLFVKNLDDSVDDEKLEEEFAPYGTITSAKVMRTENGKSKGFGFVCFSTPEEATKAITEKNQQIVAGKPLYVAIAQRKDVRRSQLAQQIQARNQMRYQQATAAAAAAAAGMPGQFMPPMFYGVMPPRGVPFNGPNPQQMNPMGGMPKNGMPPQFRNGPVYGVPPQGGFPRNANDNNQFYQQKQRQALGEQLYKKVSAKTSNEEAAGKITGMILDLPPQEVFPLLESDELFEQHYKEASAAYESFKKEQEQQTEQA

Flag-PAB1 [2] = target: T1, Flag-PAB1; assay: co-IP + AUC; as a1, but material migrating from 90S to 200S (polysomal translating complexes); cells on glucose (elongation), or glucose depleted 10 min and glucose added back for 1 min (initiation); conditions: partners not purified
eIF4E-Flag [3] = target: T2, eIF4E-Flag (yeast, UniProt P07260 1-213); assay: as above; conditions: partners not purified
T2 sequence (looked up): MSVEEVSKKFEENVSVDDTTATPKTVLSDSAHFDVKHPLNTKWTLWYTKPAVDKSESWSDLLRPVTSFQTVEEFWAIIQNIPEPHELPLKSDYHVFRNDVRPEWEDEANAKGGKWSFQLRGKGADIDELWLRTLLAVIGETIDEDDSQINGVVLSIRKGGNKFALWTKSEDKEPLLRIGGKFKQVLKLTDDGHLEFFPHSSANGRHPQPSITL

Flag-SBP1 (yeast) = Flag-SBP1 (yeast) (UniProt P10080); assay: co-IP + AUC; one-step anti-Flag bead purification from yeast crude extract (Tris pH 7.5, 0.15 M KCl, 2 mM MgCl2, 10% glycerol, 4°C), Flag peptide elution, then AU-FDS of the GFP fusion with AU-A230 or AU-A260 (20°C, 15,000 rpm); material migrating at 77S (monosomal translating complex); cycloheximide added to cells; cells on glucose (elongation), or glucose depleted 10 min and glucose added back for 1 min or 0 min (initiation)
Sequence of Flag-SBP1 (yeast) (P10080 whole entry, the tested form may be a part): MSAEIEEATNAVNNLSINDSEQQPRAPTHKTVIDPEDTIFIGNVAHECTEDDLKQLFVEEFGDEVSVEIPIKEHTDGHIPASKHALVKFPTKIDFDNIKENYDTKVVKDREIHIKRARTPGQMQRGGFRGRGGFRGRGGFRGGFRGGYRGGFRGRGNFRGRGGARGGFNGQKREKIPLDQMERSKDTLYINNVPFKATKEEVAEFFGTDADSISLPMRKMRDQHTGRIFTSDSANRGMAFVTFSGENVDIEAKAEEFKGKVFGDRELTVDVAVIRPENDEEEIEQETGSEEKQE

Flag-PAB1 [4] = target: T1, Flag-PAB1; assay: co-IP + AUC; one-step anti-Flag bead purification from yeast crude extract (Tris pH 7.5, 0.15 M KCl, 2 mM MgCl2, 10% glycerol, 4°C), Flag peptide elution, then AU-FDS of the GFP fusion with AU-A230 or AU-A260 (20°C, 15,000 rpm); material migrating at 77S (monosomal translating complex); cycloheximide added to cells; cells on glucose (elongation), or glucose depleted 10 min and glucose added back for 1 min or 0 min …; conditions: partners not purified
eIF4E-Flag [5] = target: T2, eIF4E-Flag; assay: as above; conditions: partners not purified

relative level in the 77S monosomal translating complex, mRNA set at 100 (elongation) (Flag-PAB1 [1]): < 0.3 per 100 mRNA
Molecule: PUB1-GFP (from UniProt P32588 1-453) (natural protein)

relative level in the polysomal translating complexes (90S to 200S), mRNA set at 100 (elongation) (Flag-PAB1 [2]): 18 per 100 mRNA
relative level in the polysomal translating complexes (90S to 200S), mRNA set at 100 (initiation) (Flag-PAB1 [2]): 26 per 100 mRNA
relative level in the polysomal translating complexes (90S to 200S), mRNA set at 100 (elongation) (eIF4E-Flag [3]): 75 per 100 mRNA
relative level in the polysomal translating complexes (90S to 200S), mRNA set at 100 (initiation) (eIF4E-Flag [3]): 79 per 100 mRNA
relative level in the 77S monosomal translating complex, mRNA set at 100 (elongation) (Flag-SBP1 (yeast)): < 0.3 per 100 mRNA
relative level in the 77S monosomal translating complex, mRNA set at 100 (elongation) (Flag-PAB1 [4]): 5.6 per 100 mRNA
relative level in the 77S monosomal translating complex, mRNA set at 100 (initiation) (Flag-PAB1 [4]): 8.7 per 100 mRNA
relative level in the 77S monosomal translating complex, mRNA set at 100 (elongation) (eIF4E-Flag [5]): 19 per 100 mRNA
relative level in the 77S monosomal translating complex, mRNA set at 100 (initiation) (eIF4E-Flag [5]): 20 per 100 mRNA
B1: eIF4G1-GFP (natural protein, yeast, UniProt P39935 1-952, looked up)
chain: MTDETAHPTQSASKQESAALKQTGDDQQESQQQRGYTNYNNGSNYTQKKPYNSNRPHQQRGGKFGPNRYNNRGNYNGGGSFRGGHMGANSSNVPWTGYYNNYPVYYQPQQMAAAGSAPANPIPVEEKSPVPTKIEITTKSGEHLDLKEQHKAKLQSQERSTVSPQPESKLKETSDSTSTSTPTPTPSTNDSKASSEENISEAEKTRRNFIEQVKLRKAALEKKRKEQLEGSSGNNNIPMKTTPENVEEKGSDKPEVTEKTKPAEEKSAEPEVKQETPAEEGEQGEKGQIKEESTPKVLTFAERLKLKKQQKEREEKTEGKENKEVPVQEETKSAIESAPVPPSEQVKEETEVAETEQSNIDESATTPAIPTKSDEAEAEVEAEAGDAGTKIGLEAEIETTTDETDDGTNTVSHILNVLKDATPIEDVFSFNYPEGIEGPDIKYKKEHVKYTYGPTFLLQFKDKLNVKADAEWVQSTASKIVIPPGMGRGNRSRDSGRFGNNSSRGHDFRNTSVRNMDDRANSRTSSKRRSKRMNDDRRSNRSYTSRRDRERGSYRNEEKREDDKPKEEVAPLVPSANRWVPKFKSKKTEKKLAPDGKTELLDKDEVERKMKSLLNKLTLEMFDAISSEILAIANISVWETNGETLKAVIEQIFLKACDEPHWSSMYAQLCGKVVKELNPDITDETNEGKTGPKLVLHYLVARCHAEFDKGWTDKLPTNEDGTPLEPEMMSEEYYAAASAKRRGLGLVRFIGFLYRLNLLTGKMMFECFRRLMKDLTDSPSEETLESVVELLNTVGEQFETDSFRTGQATLEGSQLLDSLFGILDNIIQTAKISSRIKFKLIDIKELRHDKNWNSDKKDNGPKTIQQIHEEEERQRQLKNNSRSNSRRTNNSSNRHSFRRDAPPASKDSFITTRTYSQRNSQRAPPPKEEPAAPTSTATNMFSALMGESDDEE
notes: eIF4G1 of yeast, GFP fusion; the printed name puts GFP after the protein; also called eIFG1; source: yeast strain carrying the GFP fusion at the chromosomal location, in crude extract

relative level in the 77S monosomal translating complex, mRNA set at 100 (elongation) (Flag-PAB1 [4]): 1 per 100 mRNA
relative level in the 77S monosomal translating complex, mRNA set at 100 (initiation) (Flag-PAB1 [4]): 1.8 per 100 mRNA
B2: SSD1-GFP (natural protein, yeast, UniProt P24276 1-1250, looked up)
chain: MSKNSNVNNNRSQEPNNMFVQTTGGGKNAPKQIHVAHRRSQSELTNLMIEQFTLQKQLEQVQAQQQQLMAQQQQLAQQTGQYLSGNSGSNNHFTPQPPHPHYNSNGNSPGMSAGGSRSRTHSRNNSGYYHNSYDNNNNSNNPGSNSHRKTSSQSSIYGHSRRHSLGLNEAKKAAAEEQAKRISGGEAGVTVKIDSVQADSGSNSTTEQSDFKFPPPPNAHQGHRRATSNLSPPSFKFPPNSHGDNDDEFIATSSTHRRSKTRNNEYSPGINSNWRNQSQQPQQQLSPFRHRGSNSRDYNSFNTLEPPAIFQQGHKHRASNSSVHSFSSQGNNNGGGRKSLFAPYLPQANIPELIQEGRLVAGILRVNKKNRSDAWVSTDGALDADIYICGSKDRNRALEGDLVAVELLVVDDVWESKKEKEEKKRRKDASMQHDLIPLNSSDDYHNDASVTAATSNNFLSSPSSSDSLSKDDLSVRRKRSSTINNDSDSLSSPTKSGVRRRSSLKQRPTQKKNDDVEVEGQSLLLVEEEEINDKYKPLYAGHVVAVLDRIPGQLFSGTLGLLRPSQQANSDNNKPPQSPKIAWFKPTDKKVPLIAIPTELAPKDFVENADKYSEKLFVASIKRWPITSLHPFGILVSELGDIHDPDTEIDSILRDNNFLSNEYLDQKNPQKEKPSFQPLPLTAESLEYRRNFTDTNEYNIFAISELGWVSEFALHVRNNGNGTLELGCHVVDVTSHIEEGSSVDRRARKRSSAVFMPQKLVNLLPQSFNDELSLAPGKESATLSVVYTLDSSTLRIKSTWVGESTISPSNILSLEQLDEKLSTGSPTSYLSTVQEIARSFYARRINDPEATLLPTLSLLESLDDEKVKVDLNILDRTLGFVVINEIKRKVNSTVAEKIYTKLGDLALLRRQMQPIATKMASFRKKIQNFGYNFDTNTADELIKGVLKIKDDDVRVGIEILLFKTMPRARYFIAGKVDPDQYGHYALNLPIYTHFTAPMRRYADHVVHRQLKAVIHDTPYTEDMEALKITSEYCNFKKDCAYQAQEQAIHLLLCKTINDMGNTTGQLLTMATVLQVYESSFDVFIPEFGIEKRVHGDQLPLIKAEFDGTNRVLELHWQPGVDSATFIPADEKNPKSYRNSIKNKFRSTAAEIANIELDKEAESEPLISDPLSKELSDLHLTVPNLRLPSASDNKQNALEKFISTTETRIENDNYIQEIHELQKIPILLRAEVGMALPCLTVRALNPFMKRV
notes: source: yeast strain carrying the GFP fusion, in crude extract

relative level in the 77S monosomal translating complex, mRNA set at 100 (elongation) (Flag-PAB1 [4]): 2.5 per 100 mRNA
relative level in the 77S monosomal translating complex, mRNA set at 100 (initiation) (Flag-PAB1 [4]): 3.5 per 100 mRNA
B3: SLF1-GFP (natural protein, yeast, UniProt Q12034 1-447, looked up)
chain: MSSQNLNDNPKNTSSAAEDKKKQTSSLKLAPIPTTSPWKSSSPDSNTVIPVEELRDISKTAKPSKNGSGSIKLTSNTKWTPITPSVIISGSKDTNSKSGKNSKNSKTNKKMKKRGKYNNDINKKDFNGQTNSTSEISNVSNLESKPLDANAKVNIHSSSGATANGNIKRITNNNNSTNGRQSRNYQNRNGKTRYNNNSRHSQAANNAISFPNNYQARPEYIPNASHWLNNNSRNSYKQLSYFRQQQYYNNINYQQQLQTPYYYSMEPIFKSIESIKNQIEFYFSEENLKTDEFLRSKFKKANDGFIPMSLIGKFYRMVNLSLGGDPNLILASMREVLQHKETNHLEIALGSIEGAQKNMADDFNPLENYFIRRENWAEYAMESNFDENDDETEKYNIEKLLGPNDLDNYSYMGYPNFFPSNENGKKSQSYDQGEISRQFEQNLQIND
notes: as for B2

relative level in the polysomal translating complexes (90S to 200S), mRNA set at 100 (elongation) (Flag-PAB1 [2]): 27 per 100 mRNA
relative level in the polysomal translating complexes (90S to 200S), mRNA set at 100 (initiation) (Flag-PAB1 [2]): 38 per 100 mRNA
relative level in the 77S monosomal translating complex, mRNA set at 100 (elongation) (Flag-SBP1 (yeast)): < 0.3 per 100 mRNA
relative level in the 77S monosomal translating complex, mRNA set at 100 (elongation) (Flag-PAB1 [4]): 16 per 100 mRNA
relative level in the 77S monosomal translating complex, mRNA set at 100 (initiation) (Flag-PAB1 [4]): 23 per 100 mRNA
B4: eIF4E-GFP (natural protein, yeast, UniProt P07260 1-213, looked up)
chain: T2 sequence (looked up)
notes: the printed name puts GFP after the protein; source: yeast strain carrying the GFP fusion, in crude extract

relative level in the polysomal translating complexes (90S to 200S), mRNA set at 100 (elongation) (eIF4E-Flag [3]): 74 per 100 mRNA
relative level in the polysomal translating complexes (90S to 200S), mRNA set at 100 (initiation) (eIF4E-Flag [3]): 59 per 100 mRNA
relative level in the 77S monosomal translating complex, mRNA set at 100 (elongation) (Flag-SBP1 (yeast)): < 0.3 per 100 mRNA
relative level in the 77S monosomal translating complex, mRNA set at 100 (elongation) (eIF4E-Flag [5]): 12 per 100 mRNA
relative level in the 77S monosomal translating complex, mRNA set at 100 (initiation) (eIF4E-Flag [5]): 15 per 100 mRNA
B5: PAB1-GFP (natural protein, yeast, UniProt P04147 1-577, looked up)
chain: T1 sequence (looked up)
notes: as for B4
